The values below come from the DeepSol protein solubility set.

The nature of the data set: soluble on expression in E. coli; label from the status in PepcDB or PDB records.
In the case of “FNKKEVLDLTSPKNSIRSRNKLRRTLRNIQERIEDELNHEREALIQDFDYRLAVTYDQMLKDSNIPFSVKDVMAFIEKHTGVRFG”, the “soluble on expression in E. coli” value is reported as “soluble”. In the case of “FNWDRAMYSLITYFLAYKVIDIVIQGVDESKSAFIISRYYEEIGAEIMEQLGKGVTYLDATGGYSGDVRKVVFVIVSRFEEVKVKAILDEIDPDAFLAVGGSMSEVRGGKLMNTKTPHL”, the “soluble on expression in E. coli” value was “not soluble”. Turning to “FTANIKGLTQASRNANDGISIAQTTEGALNEINNNLQRVRELAVQSANSTNSQSDLDSIQAEITQRLNEIDRVSGQTQFNGVKVLAQDNTLTIQVGANDGETIDIDLKQINSQTLGLDTLNVQQKYKVSDTAATVTGYADTTIALDNSTFKASATGLGGTDQKIDGDLKFDDTTGKYYAKVTVTGGTGKDGYYEVSVDKTNGEVTLAGGATSPLTGGLPATATEDVKNVQVANADLTEAKAALTAAGVTGTASVVKMSYTDNNGKTIDGGLAVKVGDDYYSATQNKDGSISINTTKYTADDGTSKTALNKLGGADGKTEVVSIGGKTYAASKAEGHNFKAQPDLAEAAATTTENPLQKIDAALAQVDTLRSDLAAVQNRFNSAITNLGNTVNNLTSAR”, the “soluble on expression in E. coli” value is “soluble”. The same measure for “GAKQLSTARKFKMITGKDLFQQQKAMDTELKKEDGEITDLMEFVQYGLYLALFQDNIVKAKSDFSDFRSSFEFDTDGKGLKELVELWQKEI”: “soluble”; for “GAMAPATCEKPKFLEYKTCVGDLTVVIAKALDEFKEFCIVNAANEHMTHGSGVAKAIADFCGLDFVEYCEDYVKKHGPQQRLVTPSFVKGIQCVNNVVGPRHGDNNLHEKLVAAYKNVLVDGVVNYVVPVLSLGIFGVDFKMSIDAMREAFEGCTIRVLLFSLSQEHIDYFDVTCK”: “soluble”. For “GAMASLVVPNLMGNKDKADRQKVMSDLVALESTLDMYRLDNNRYPTTEQGLRALVSKPTVQPEPRNYRQDGYIRRLPQDPWGGDYQLLNPGQYSDIDIFSPGPDGVPNTEDDIGNWTLGNAQP”, the “soluble on expression in E. coli” value is on record as “soluble”. In the case of “GAMASSVLVTQEPEIELPREPRPNEECLQILGNAEKGAKFLSDAEIIQLVNAKHIPAYKLETLIETHERGVSIRRQLLSKKLSEPSSLQYLPYRDYNYSLVMGACCENVIGYMPIPVGVAGPLCLDEKEFQVPMATTEGCLVASTNRGCRAIGLGGGASSRVLADGMTRGPVVRLPRACDSAEVKAWLETSEGFAVIKEAFDSTSRFARLQKLHTSIAGRNLYIRFQSRSGDAMGMNMISKGTEKALSKLHEYFPEMQILAVSGNYCTDKKPAAINWIEGRGKSVVCEAVIPAKVVREVLKTTTEAMIEVNINKNLVGSAMAGSIGGYNAHAANIVTAIYIACGQDAAQNVGSSNCITLMEASGPTNEDLYISCTMPSIEIGTVGGGTNLLPQQACLQMLGVQGACKDNPGENARQLARIVCGTVMAGELSLMAALAAGHLVKSHMIHNRSKINLQDLQGACTKKTA”, the “soluble on expression in E. coli” value is on record as “soluble”. The same measure for “GAMGGMHLVGVLDIAKDILKANKRLADKNRKLLNKHGVVAFDFMGAIGSGKTLLIEKLIDNLKDKYKIACIAGDVIAKFDAERMEKHGAKVVPLNTGKECHLDAHLVGHALEDLNLDEIDLLFIENVGNLICPADFDLGTHKRIVVISTTEGDDTIEKHPGIMKTADLIVINKIDLADAVGADIKKMENDAKRINPDAEVVLLSLKTMEGFDKVLEFIEKSVKEVK”: “soluble”; for “GAMGNKEKADQQKAITDIVALENALDMYKLDNSVYPTTDQGLEALVTKPSSPEPRNYRNGGYIKRLPKDPWGNEYQYMSPGDKGTIDIFTLGADGQEGGEGAAADIGNWNMQDFQ”: “soluble”. The same measure for “GAMGSDFLLGNPFSSPVGQRIEKATDGSLQSEDWALNMEICDIINETEEGPKDALRAVKKRIVGNKNFHEVMLALTVLETCVKNCGHRFHVLVASQDFVESVLVRTILPKNNPPTIVHDKVLNLIQSWADAFRSSPDLTGVVTIYEDLRRKGLEFPM”: “soluble”.

For the sequence “GAMGSGDTQLFNRAVSMVEKNKDIRSLLQCDDGITGKERLKAYGELITNDKWTRNRPIVSTKKLDKEGRTHHYMRFHVESKKKIALVHLEAKESKQNYQPDFINMYVDVPGEKRYYLIKPKLHPVSN”, the “soluble on expression in E. coli” value is “soluble”. With “GAMGSKISNIFEDVEFCVMSGTDSQPKPDLENRIAEFGGYIVQNPGPDTYCVIAGSENIRVKNIILSNKHDVVKPAWLLECFKTKSFVPWQPRFMIHMCPSTKEHFAREYDCYGDSYFIDTDLNQLKEVFSGIKNSNEQTPEEMASLIADLEYRYSWDCSPLSMFRRHTVYLDSYAVINDLSTKNEGTRLAIKALELRFHGAKVVSCLAEGVSHVIIGEDHSRVADFKAFRRTFKRKFKILKESWVTDSIDKCELQEENQYLI”, the “soluble on expression in E. coli” value is reported as “soluble”. As for “GAMMPVPNPTMPVKGAGTTLWVYKGSGDPYANPLSDVDWSRLAKVKDLTPGELTAESYDDSYLDDEDADWTATGQGQKSAGDTSFTLAWMPGEQGQQALLAWFNEGDTRAYKIRFPNGTVDVFRGWVSSIGKAVTAKEVITRTVKVTNVGRPSMAE”, the entry is “soluble”; as for “GAMRIMRPDDANVAGNVHGGTILKMIEEAGAIISTRHCNSQNGERCVAALARVERTDFLSPMCIGEVAHVSAEITYTSKHSVEVQVHVMSENILTGTKKLTNKATLWYVPLSLKNVDKVLEVPPIVYLRQEQEEEGRKRYEAQKLERMETK”, “soluble”. “GATNEVNVDAIKQLYMDCKNEADKFDVLTELYGLMTIGSSIIFVATKKTANVLYGKLKSEGHEVSILHGDLQTQERDRLIDDFREGRSKVLITTNVLARGIDIPTVSMVVNYDLPTLANGQADPATYIHRIGRTGRFGRKGVAISFVHDKNSFNILSAIQKYFGDIEMTRVPTDDWDEVEKIVKKVLKD”: the “soluble on expression in E. coli” value is listed as “soluble”.

Regarding GCPRILIRCKQDSDCLAGCVCGPNGFCGSPA, the “soluble on expression in E. coli” value is reported as “soluble”. As for “GDSFYIRTHFEYEKESPYGLSFNKGEVFRVVDTLYNGKLGSWLAIRIGKNHKEVERGIIPNKNRAEQLASVQYVQTKFPAYERVVLREAGFLRPVTIFGPIADVAREKLAREEPDIYQIAKSEPRDAGTDQRSSGIIRLHTIKQIIDQDKHALLDVTPNAVDRLNYAQWYPIVVFLNPDSKQGVKTMRMRLCPESRKSARKLYERSHKLRKNNHHLFTTTINLNSMNDGWYGALKEAIQQQQNQLVWVSEG”, the entry is “soluble”.

In the case of “GERLSMEDAVKLYESDEVEKMGAAANQIMLKWHPEPITTFVIGRNVNYTNFCDTYCRFCAFYRAPGHKEGYVLDDEVILKKIQETIDVGGTEILMQGGTNPDLTIDYYTDLLRNIKERFPNIWMHSFSPAEVWKIAEVSSMSVEEVLRELHEAGLDSMPGGGAEILTEETRLRVSRLKITWEQWINAMKATKKVGMHGTATMVIGFGESFEERALHLQRVRDAQDETECFTAFISWLFQPENTGMYKTKKLTPRDYLKNVAISRLFLDNIPNFQSSWVTMGPEVGKLSLQYGCNDFGSTMIEENVVSAAGTTHKVNTNKILQLIREAGKIPAQR”, the “soluble on expression in E. coli” value is recorded as “not soluble”. The same measure for “GFIDTHLHVESSLVTPFEFDRCVTPRGITTAICDPHEIANVCGLEGIRYFLEASAHLVMDLRVQLSSCVPSTHMETAGAALEAKDLAPLMDHPRVIGLAEFMNFPGVLMKDPGCMAKLEAFRGRHIDGHAPLLRGKDLNGYIAAGIRTEHEATTAEEALEKLRKGMRVLIREGSVSKDLHALVSILTERHAPYLCLCTDDRNPLDIAEHGHIDHMIRTAIRLGAPPLAVYRAASLSAADAFGLKDRGLIAPGRRADIAVLD”: “not soluble”; for GFTPHDSAPYGALDMADFEFEQMFTDALGIDEYGG: “soluble”. The same measure for “GHGHMHGRLKVKTSEEQAEAKRLEREQKLKLYQSATQAVFQKRQAGELDESVLELTSQILGANPDFATLWNCRREVLQHLETEKSPEESAALVKAELGFLESCLRVNPKSYGTWHHRCWLLSRLPEPNWARELELCARFLEADERNFHCWDYRRFVAAQAAVAPAEELAFTDSLITRNFSNYSSWHYRSCLLPQLHPQPDSGPQGRLPENVLLKELELVQNAFFTDPNDQSAWFYHRWLLGAGSGRCELSVEKSTVLQSELESCKELQELEPENKWCLLTIILLMRALDPLLYEKETLQYFSTLKAVDPMRAAYLDDLRSKFLLENSVLKMEYA”: “soluble”.
